From patent US12083109B2, “Neurokinin antagonists and uses thereof” (California Institute of Technology, priority 2017, dated 2024)
Entries after “also recorded” stand apart in the source; their conditions may differ.

B1: shRNA-1: small hairpin RNA for mouse Tac2 gene (SEQ ID NO: 9, 10), expressed from AAV5-H1-shRNA-CMV-zsGreen (nucleic acid)
chain 1: CCGACGTGGTTGAAGAGAACACCGCTTCCTGTCACGGTGTTCTCTTCAACCACGTCTTTTTT
chain 2: AAAAAAGACGTGGTTGAAGAGAACACCGTGACAGGAAGCGGTGTTCTCTTCAACCACGTCGG
B2: shRNA-2: small hairpin RNA for mouse Tac2 gene (SEQ ID NO: 11, 12), expressed from AAV5-H1-shRNA-CMV-zsGreen (nucleic acid)
chain 1: CCGCCTCAACCCCATAGCAATTAGCTTCCTGTCACTAATTGCTATGGGGTTGAGGCTTTTTT
chain 2: AAAAAAGCCTCAACCCCATAGCAATTAGTGACAGGAAGCTAATTGCTATGGGGTTGAGGCGG

Test system: Tac2 mRNA
Test: Tac2 mRNA knockdown by FISH and qRT-PCR in brain of shRNA mice
Type: in vivo, mouse
Settings: for knockdown of Tac2 mRNA (efficacy of shRNA): FISH and qRT-PCR; for Tac2 mRNA in CeA / Tac2 mRNA in DMH / Tac2 mRNA in dBNSTa: FISH fluorescence / qRT-PCR vs luciferase shRNA control
Description: Fluorescent in situ hybridization (FISH) was carried out according to the protocol described in (Thompson et al., 2008; incorporated by reference in its entirety) with modifications. Briefly, mice were transcardially perfused with 1×PBS followed by 4% paraformaldehyde/PBS (PFA) in 1×PBS. Brains were fixed in 4% PFA for 3-4 hours at 4° C., and cryoprotected overnight in 15% sucrose at 4° C. Brains were embedded in OCT Compound (Fisher Scientific) and cryosectioned at 30 μm thickness and mounted on Superfrost Plus slides (Fisher Scientific). Sections were fixed in 4% PFA for 30 minutes, acetylated with 0.25% acetic anhydride in 0.1 M triethanolamine for 10 minutes, dehydrated with increasing concentrations of EtOH (50, 70, 95 and 100%), gently treated with proteinase K ([…] in 0.01M Tris-HCl pH 7.4 and 0.001M EDTA) for 10 minutes, and fixed in 4% PFA for 20 minutes. All procedures were performed at room temperature (RT). The hybridization buffer contained 50% deionized formamide, 3× standard saline citrate (SSC), 0.12 M PB (pH 7.4), 10% dextran sulfate, 0.12 mg/ml yeast tRNA, 0.1 mg/mL calf thymus DNA, and 1× Dehardt solution. The sections were prehybridized at 63° C. in hybridization buffer for 30 minutes and then hybridized with the digoxigenin-labeled Tac2 RNA probe (300 ng/ml) in hybridization buffer at 63° C. for 16 hours. After hybridization, the sections were washed with 5×SSC for 10 minutes, 4×SSC/50% formamide for 20 minutes, 2×SSC/50% formamide for 30 minutes, and 0.1×SSC for 20 minutes twice each at 61° C. The sections were blocked with 4% sheep serum in TNT buffer (Tris-HCl pH7.5, 0.15 M NaCl and 0.00075% Tween 20) for 30 minutes and TNB Blocking buffer (TSA blocking reagent, PerkinElmer, Waltham, MA) for 30 minutes at RT. The sections were incubated overnight at RT with anti-digoxigenin-POD antibody (1:600, Roche Diagnostics) in TNB buffer. The sections were washed with TNT buffer and tyramide-biotin signal amplification was performed using the TSA Plus Biotin Kit (PerkinElmer). Signals were visualized after 1 hour incubation with Alexa Fluor 594 Streptavidin (Jackson ImmunoResearch) or Alexa Fluor 488 Streptavidin (Invitrogen) at RT. Sections were counterstained with DAPI ([…] in PBS), washed with 1×PBS, and coverslipped using Fluoro-Gel with Tris Buffer (Electron Microscopy Sciences). Tissue images of entire coronal brain sections were taken using an Olympus VS120-S6-W slide-scanner and cells positive for the probe were counted. Cell Counting
Following confocal or slide-scanner imaging, quantification of labeled cells was performed using ImageJ and Metamorph. Cells were counted by an observer blind to experimental conditions. Brain images were converted to greyscale (16-bit) in ImageJ and adjusted using automatic thresholding and watershed separation. Cells were either counted automatically using ImageJ's particle analysis algorithm (random sections were counted manually to cross-check that automated scoring was consistent with manual human scoring); otherwise, cells were counted manually using MetaMorph. Cells that were not entirely contained within a given region of interest (ROI) were excluded from analyses. Relative fluorescent intensities were measured automatically using MetaMorph for a given ROI. Raw cell counts within an ROI were divided by the size of the ROI (mm^2) to produce the number of positively labeled cells/mm^2.
Group housed or isolated (30 minutes, 24 hours, 2 weeks) mice were decapitated and brains were quickly removed and placed in RNA Later (Qiagen) at 4° C. Tissue from dBNSTa, DMH, CeA, ACC, and dHPC was microdissected and placed in RNA Later. Tissue was then homogenized and RNA purified using an RNAeasy Plus Mini Kit (Qiagen). 150ng of total RNA/region/condition was then incubated with 3 μl of Turbo DNase, 1 μl of Murine RNase Inhibitor in 1× Turbo DNase buffer for 15 minutes at 37° C. to remove any contaminating genomic DNA. […]

| Molecule | knockdown of Tac2 mRNA (efficacy of shRNA) | Tac2 mRNA in CeA | Tac2 mRNA in DMH | Tac2 mRNA in dBNSTa |
| --- | --- | --- | --- | --- |
| B1 | proved effective | appeared reduced | reduced | reduced |
| B2 | proved effective; also recorded: strongest reductions; also recorded: stronger knockdown | appeared reduced | reduced | reduced |
